# According to patent publication US20220356229A1 (published 2022):
# B1: anti-SARS-CoV-2 antibody 1404 (antibody, V domains shown)
# VH: QITLKESGPTLVKPTQTLTLTCTFSGFSLSISGVGVGWLRQPPGKALEWLALIYWDDDKRYSPSLKSRLTISKDTSKNQVVLKMTNIDPVDTATYYCAHHSISTIFDHWGQGTLVTVSS
# VL: QSALTQPASVSGSPGQSITISCTATSSDVGDYNYVSWYQQHPGKAPKLMIFEVSDRPSGISNRFSGSKSGNTASLTISGLQAEDEADYYCSSYTTSSAVFGGGTKLTVLG
# B2: anti-SARS-CoV-2 antibody 896 (antibody, V domains shown)
# VH: EVQLVESGGGVVQPGGSLRLSCAASGFTFDDYAMHWVRQVPGKGLEWVSLISGDGGSTYYADSVKGRFTISRDNSKNSLYVQMNSLRTEDTALYYCVKDRGGSGWDLNHYYYGMDVWGQGTTVTVSS
# VL: DIQLTQSPSFLSASVGDRVTVTCRASQGISSYLAWYQQKPGKAPKLLIYAAYTLQSGVPSRFSGSGSETEFTLTISSLQPEDFATYYCQQVKSYPLTFGGGTKVEIKR
# B3: anti-SARS-CoV-2 antibody 894 (antibody, V domains shown)
# VH: QVQLVQSGAEVKKPGASVKVSCKVSGYTLPELSIHWVRQAPGKGLEWMGGFDPENAETIYTQKFQGRLTMTEDTSTDTAYMELSSLRSEDTAMYYCATSFVLMPAALGDYSYYYGMDVWGQGTTVTVSS
# VL: not shown
# B4: anti-SARS-CoV-2 antibody 1444 (antibody, V domains shown)
# VH: QVQLVQSGAEVKKPGASVKVSCKASGYTFTAYYMHWVRQAPGQGLEWMGWINPNSDDTNYAQKFQGRVTMTRDTSISTAYMELSRLRSDDTAVYYCAREEGVFTIGDRYFDLWGRGTLVSVSS
# VL: QTVVTQEPSFSVSPGGTVTLTCGLSSGSVSTSYYPSWYQQTPGQAPRTLIYNTNTRSSGVPDRFSGSILGNKAALTITGAQADDESDYYCVLYMGSGIWVFGGGTKLTVLG
# B5: anti-SARS-CoV-2 antibody 851 (antibody, V domains shown)
# VH: QITLKESGPTLVKPTQTLTLTCTFSGFSLSTNGVGMGWIRQPPGKALEWLALIYWDDDQFYSPSLKSRLTITRDTSKNQVVLTMTNMDPVDTATYYCAQAFYESFGFYSWGQGTLVTVSS
# VL: NFMLTQPHSVSESPGKTVIISCTRSIGSIASNYVQWYQQRPGSAPTIVVFEDNERPSGVPDRFSGSIDRSSNSASLTISGLKTEDEADYYCQSYDGSSELVFGGGTKLTVLG
# B6: anti-SARS-CoV-2 antibody 1538 (antibody, V domains shown)
# VH: EVQLLESGGGLVQPGGSLRLSCAASGFTFSSYAMSWVRQAPGKGLEWVSGISDSGGSTYYADYVKGRFTISRDNSKDTLYLQMNSLRAEDTAVYYCAKDRGNEYALTHYYYYAMDVWGQGTTVTVSS
# VL: DIQMTQSPSSLSASVGDRVTITCRASQSISSYLNWYQQKPGKAPKLLIYAAYSLQSGVPSRFSGGGSGTDFTLTISSLQPEDFATYFCQQSYSTPITFGQGTRLEIKR
# B7: anti-SARS-CoV-2 antibody 1015 (antibody, V domains shown)
# VH: EVQLVESGGGLVQPGGSLRLSCAASGFTFSSYWMHWVRQAPGKGLVWVSHINSDGSSTSYADSVKGRFTISRDNAKNTLYLQMNSLRAEDTAVYYCARGLRYFDLDVWGQGTTVTVSS
# VL: QSVLTQPPSVSEAPRQRVTISCSGSSSNIGNNAVNWYQQLPGKAPKLLIFYDDLLPSGVSDRFSGSKSGTSASLAISGLQSEDEADYYCAAWDDSLNGGVFGGGTKLTVLG
# B8: anti-SARS-CoV-2 antibody 1495 (antibody, V domains shown)
# VH: QVQLVESGGGVVQPGRSLRLSCTASGFTFSSYAMHWVRQAPGKGLEWVAVISYDGNNKYYGDSVKGRFTISRDNSKNTLYLQMNSLRAEDTAVYYCAKGADTPHYSGYHFLSVGYYFYGMDVWGQGTTVTVSS
# VL: DIQMTQSPSSLSASVGDRVTITCRASQSISYYLNWYQQKPGKAPQLLIYAASSLQSGVPSRFSGSRSGTDFTLTISSLQPEDFATYYCQQSYSTPFTFGPGTKVDIKR
# B9: anti-SARS-CoV-2 antibody 1075 (antibody, V domains shown)
# VH: QVQLVQSGAEVKKPGASVKVSCKVSGYTLIELSMHWVRQAPGKGLEWMGGFDPEDGETIYAQKFQGRVTMTEDTSTDTAYMELSSLRSEDTAVYYCATEWAYYGSGSYLGYWGQGTLVTVSS
# VL: EIVMTQSPATLSVSPGERATLSCRASQSVSSNLAWFQQKPGQAPRLLIYGASTRVTVIPARFSGSGSGTEFTLTISSLQSEDFAVYYCQQYNNWPRTFGQGTKVEIKR
# B10: antibody 569 (antibody, V domains shown)
# VH: QVQLVESGGGVVQPGRSLRLSCAASGFTFSSYAMHWVRQAPGKGLEWVAVISYDGSNKYYADSVKGRFTISRDNSKNTLYLQMNSLRAEDTAVYYCARASSGGYQGPFDPWGQGTLVTVSS
# VL: EIVLTQSPATLSLSPGERATLSCRASQSVSSYLAWYQQKPGQAPRLLIYDASNRATGIPARFSGSGSGTDFTLTISSLEPEDFAVYYCQQRSSPFGPGTKVDIK
# B11: antibody 571 (antibody, V domains shown)
# VH: EVQLVESGGGLVQPGGSLRLSCAASGFTFSTYWMTWVRQAPGKGLEWVANIKHDGSGKYHVDSVKGRFTISRDNAKNSLYLQMNSLRAEDTAVYYCTRDEGGWYDYWGQGTLVTVSS
# VL: QSALTQPASVSGSPGQSITISCTGTSSDVGSYNPVSWYQQHPGKAPKVMIYEGSKRPSGVSNRFSGSKSGNTASLTISGLQAEDEADYYCCSYARSSTFVVFGGGTKLTVL
# B12: antibody 563 (antibody, V domains shown)
# VH: QVQLVESGGGVVQPGRSLRLSCAASGFTFSSYAMHWVRQAPGKGLEWVAVISDDGSNKYYADSVKGRFTISRDNSKNTLYLQMNSLRAEDTAVYYCARDIVATIRRLFDYWGQGTLVTVSS
# VL: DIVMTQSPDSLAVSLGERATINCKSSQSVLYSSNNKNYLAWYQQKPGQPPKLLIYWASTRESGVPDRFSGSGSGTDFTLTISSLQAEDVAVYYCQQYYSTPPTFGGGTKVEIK
# B13: antibody 560 (antibody, V domains shown)
# VH: EVQLVESGGGLVQPGGSLRLSCAASGFTISSNYMSWVRQAPGKGLEWVSVIYSGGSTYYADSVKGRFTISRDNSKNTLYLQMNSLRAEDTAVYYCAREEGEWEKDYYGMDVWGQGTTVTVSS
# VL: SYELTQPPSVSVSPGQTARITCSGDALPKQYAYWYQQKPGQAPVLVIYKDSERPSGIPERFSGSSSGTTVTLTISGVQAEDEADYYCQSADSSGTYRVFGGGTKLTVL
# B14: antibody 556 (antibody, V domains shown)
# VH: QVQLVESGGGVVQPGRSLRLSCAASGFTFSSYAMHWVRQAPGKGLEWVAVISYDGSDKYYADSVKGRVTISRDNSKNTLYLQMNSLRVEDTAVFYCAKDDCSGGVCFPDYWGQGTLVTVSS
# VL: QSALTQPASVSGSPGQSITISCTGTSSDVGGYNYVSWYQQHPGKAPKLMIYEVSIRPSGVSNRFSGSKSGNTASLTISGLQAEDEAAYYCSSYTSSSTLVFGGGTKLTVL
# B15: antibody 564 (antibody, V domains shown)
# VH: QVHLVESGGGVVQPGKSLRLSCAASGFIFSSFGMHWVRQPPGKGLEWLAVVSYDGSVTKYSDSFEGRFTISRDNSKNTLYLQMDSLRPEDTAVYYCAKGQGTNLLHYWGQGILVTVSS
# VL: DVVLSQSPLSLPVTLGQPASISCRSSESLVYTDGDTYLHWFHQRPGQSPRRLIFKVSHRESGVPDRISGSGSGTDFTLKISRVEAEDVGVYYCMQGTHWPFTFGPGTKVDIK
# B16: antibody 566 (antibody, V domains shown)
# VH: QVQLVQSGAEVKKPGASVKVSCKASGYTFTSYAMHWVRQAPGQRLEWMGWINAGNGNTKYSQKFQGRVTITRDTSASTAYMELSSLRSEDTAVYYCARDLGVAVTLHPADFDYWGQGTLVTVSS
# VL: QSVLTQPPSVSGAPGQRVTISCTGSSSNIGAGYDVHWYQQLPGTAPKLLIYDNSNRPSGVPDRFSGSKSGTSASLAITGLQAEDEADYYCQSYDSSLSAVVFGGGTKLTVL
# B17: anti-coronavirus antibody 571 (antibody, V domains shown)
# VH: B11 VH
# VL: B11 VL
# B18: anti-coronavirus antibody 563 (antibody, V domains shown)
# VH: B12 VH
# VL: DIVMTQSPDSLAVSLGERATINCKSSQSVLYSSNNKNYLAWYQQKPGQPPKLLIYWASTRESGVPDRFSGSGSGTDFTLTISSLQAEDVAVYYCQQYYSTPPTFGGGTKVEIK
# B19: anti-coronavirus antibody 560 (antibody, V domains shown)
# VH: B13 VH
# VL: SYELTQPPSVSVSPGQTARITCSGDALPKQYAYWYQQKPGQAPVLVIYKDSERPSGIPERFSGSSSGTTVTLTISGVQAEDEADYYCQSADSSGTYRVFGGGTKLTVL
# B20: anti-coronavirus antibody 566 (antibody, V domains shown)
# VH: B16 VH
# VL: B16 VL
# Molecular target: SARS-CoV-2 full length Spike protein, wild type, expressed on CHO cells (SARS-CoV-2, UniProt P0DTC2 14-1273)
# Assay: not given
row,Binder,"median fluorescence intensity, fold over isotype control [fold over isotype]"
1,B1,71.2
2,B2,70.3
3,B3,77.7
4,B4,48.7
5,B5,60
6,B6,67.5
7,B7,30.5
8,B8,57.3
9,B9,78.7

# Molecular target: T1, SARS-CoV full length Spike protein, wild type, expressed on CHO cells (SARS-CoV, UniProt P59594 14-1255)
# Assay: not given
row,Binder,"median fluorescence intensity, fold over isotype control [fold over isotype]"
1,B1,0.86
2,B2,0.69
3,B3,0.67
4,B4,0.77
5,B5,0.62
6,B6,0.75
7,B7,0.89
8,B8,0.72
9,B9,0.86

# Molecular target: SARS-CoV-2 full length Spike protein, wild type (SARS-CoV-2, UniProt P0DTC2 14-1208)
# Assay: not given
row,Binder,"median fluorescence intensity, fold over isotype control [fold over isotype]"
1,B10,478
2,B11,338
3,B12,513
4,B13,991
5,B14,625
6,B15,523
7,B16,613

# Molecular target: T1, SARS-CoV full length Spike protein, …
# Assay: flow cytometry, live cell assay on transfected CHO cells
row,Binder,binding result
1,B1,no binding
2,B2,no binding
3,B3,no binding
4,B4,no binding
5,B5,no binding
6,B6,no binding
7,B7,no binding
8,B8,no binding
9,B9,no binding

# Molecular target: SARS-CoV Spike protein (SARS-CoV, UniProt P59594 14-1190)
# Assay: not given
row,Binder,binding signal (fold over isotype control)
1,B17,1.28
2,B18,35.4
3,B19,1.14
4,B20,0.97
